The record followed here is paper PMC8097366, “The Dual Function of KDM5C in Both Gene Transcriptional Activation and Repression Promotes Breast Cancer Cell Growth and Tumorigenesis” (Advanced Science, 2021).

For the experiment, the target named is T1, HA-tagged KDM5C, full length (UniProt P41229 1-1560).
T1 construct: KDM5C (JARID1C, SMCX), histone demethylase; the truncations run to residue 1560; KDM5C was sub-cloned into pCDH-3×Flag-3×HA-EF1-puro and into pLV-EF1-puro(cs2.0)-N-3×HA; also called HA-KDM5C; KDM5C FL; source: HEK293T, transfected, in lysate, nuclear extract or cytosolic extract; HEK293T, purified on anti-HA agarose
T1 sequence (P41229 whole entry, the tested form may be a part): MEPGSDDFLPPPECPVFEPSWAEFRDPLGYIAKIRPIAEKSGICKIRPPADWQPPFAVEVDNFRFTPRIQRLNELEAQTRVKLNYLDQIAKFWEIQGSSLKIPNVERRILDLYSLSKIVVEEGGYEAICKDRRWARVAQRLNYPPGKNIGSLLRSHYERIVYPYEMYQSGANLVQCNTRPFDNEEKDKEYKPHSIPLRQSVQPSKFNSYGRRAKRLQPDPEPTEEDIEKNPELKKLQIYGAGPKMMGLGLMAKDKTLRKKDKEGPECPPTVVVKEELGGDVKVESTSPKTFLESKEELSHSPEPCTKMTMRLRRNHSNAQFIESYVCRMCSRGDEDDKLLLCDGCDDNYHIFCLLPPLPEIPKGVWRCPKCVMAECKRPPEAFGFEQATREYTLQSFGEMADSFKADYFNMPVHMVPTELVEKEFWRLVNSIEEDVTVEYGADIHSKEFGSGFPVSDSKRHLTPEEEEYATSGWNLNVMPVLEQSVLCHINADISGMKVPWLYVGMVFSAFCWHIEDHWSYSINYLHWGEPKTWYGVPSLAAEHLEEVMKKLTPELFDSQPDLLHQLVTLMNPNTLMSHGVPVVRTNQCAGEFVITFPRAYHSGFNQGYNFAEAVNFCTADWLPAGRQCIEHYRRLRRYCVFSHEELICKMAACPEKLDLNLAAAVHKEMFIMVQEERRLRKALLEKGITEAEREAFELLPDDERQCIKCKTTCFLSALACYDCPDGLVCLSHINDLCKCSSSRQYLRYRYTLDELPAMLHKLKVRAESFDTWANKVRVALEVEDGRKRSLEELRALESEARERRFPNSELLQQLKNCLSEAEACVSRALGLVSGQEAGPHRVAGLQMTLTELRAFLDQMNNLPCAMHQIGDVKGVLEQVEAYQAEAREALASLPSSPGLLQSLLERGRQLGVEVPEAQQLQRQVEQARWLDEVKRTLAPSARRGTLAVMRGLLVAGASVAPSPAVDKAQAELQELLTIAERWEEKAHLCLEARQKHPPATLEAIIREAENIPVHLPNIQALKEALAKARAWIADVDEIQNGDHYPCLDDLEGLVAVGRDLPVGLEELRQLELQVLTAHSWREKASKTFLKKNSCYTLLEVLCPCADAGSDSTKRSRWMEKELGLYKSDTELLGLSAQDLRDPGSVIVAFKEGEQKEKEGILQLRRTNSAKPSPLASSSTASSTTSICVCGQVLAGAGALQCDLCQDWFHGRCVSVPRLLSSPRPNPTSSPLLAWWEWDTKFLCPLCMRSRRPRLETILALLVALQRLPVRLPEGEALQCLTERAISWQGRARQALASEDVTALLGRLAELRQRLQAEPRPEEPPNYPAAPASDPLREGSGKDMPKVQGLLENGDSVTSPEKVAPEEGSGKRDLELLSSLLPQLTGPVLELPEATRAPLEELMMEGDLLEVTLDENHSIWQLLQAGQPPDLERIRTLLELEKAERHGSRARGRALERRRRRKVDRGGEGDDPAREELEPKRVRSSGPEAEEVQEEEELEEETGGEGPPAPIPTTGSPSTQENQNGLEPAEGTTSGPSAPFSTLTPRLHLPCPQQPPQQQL
As to the kind of experiment: co-IP; cytosolic extracts from transfected HEK293T cells; IP with anti-HA antibody; immunoblotting. Conditions: partners not purified.

B1: Flag-tagged TBK1 (pBOBI-3×Flag-hTBK1) (enzyme, human, UniProt Q9UHD2 1-729, looked up)
chain: MQSTSNHLWLLSDILGQGATANVFRGRHKKTGDLFAIKVFNNISFLRPVDVQMREFEVLKKLNHKNIVKLFAIEEETTTRHKVLIMEFCPCGSLYTVLEEPSNAYGLPESEFLIVLRDVVGGMNHLRENGIVHRDIKPGNIMRVIGEDGQSVYKLTDFGAARELEDDEQFVSLYGTEEYLHPDMYERAVLRKDHQKKYGATVDLWSIGVTFYHAATGSLPFRPFEGPRRNKEVMYKIITGKPSGAISGVQKAENGPIDWSGDMPVSCSLSRGLQVLLTPVLANILEADQEKCWGFDQFFAETSDILHRMVIHVFSLQQMTAHKIYIHSYNTATIFHELVYKQTKIISSNQELIYEGRRLVLEPGRLAQHFPKTTEENPIFVVSREPLNTIGLIYEKISLPKVHPRYDLDGDASMAKAITGVVCYACRIASTLLLYQELMRKGIRWLIELIKDDYNETVHKKTEVVITLDFCIRNIEKTVKVYEKLMKINLEAAELGEISDIHTKLLRLSSSQGTIETSLQDIDSRLSPGGSLADAWAHQEGTHPKDRNVEKLQVLLNCMTEIYYQFKKDKAERRLAYNEEQIHKFDKQKLYYHATKAMTHFTDECVKKYEAFLNKSEEWIRKMLHLRKQLLSLTNQCFDIEEEVSKYQEYTNELQETLPQKMFTASSGIKHTMTPIYPSSNTLVEMTLGMKKLKEEMEGVVKELAENNHILERFGSLTMDGGLRNVDCL
notes: TBK1, kinase; hTBK1 in the construct's name; The end of the tag and the species are read from the printed name of the construct; also called Flag-TBK1; source: HEK293T, transfected, in cytosolic extract; HEK293T, purified (eluted with 3×Flag peptide); not shown: 3×Flag, N-terminal, kept
For B1, the binding result was “binds”.
